The text below walks through data of patent US20120121633A1 (published 2012).

The assay concerns the target T1, ovalbumin (UniProt P01012 2-386).
T1 construct: also called control ovalbumin
T1 sequence: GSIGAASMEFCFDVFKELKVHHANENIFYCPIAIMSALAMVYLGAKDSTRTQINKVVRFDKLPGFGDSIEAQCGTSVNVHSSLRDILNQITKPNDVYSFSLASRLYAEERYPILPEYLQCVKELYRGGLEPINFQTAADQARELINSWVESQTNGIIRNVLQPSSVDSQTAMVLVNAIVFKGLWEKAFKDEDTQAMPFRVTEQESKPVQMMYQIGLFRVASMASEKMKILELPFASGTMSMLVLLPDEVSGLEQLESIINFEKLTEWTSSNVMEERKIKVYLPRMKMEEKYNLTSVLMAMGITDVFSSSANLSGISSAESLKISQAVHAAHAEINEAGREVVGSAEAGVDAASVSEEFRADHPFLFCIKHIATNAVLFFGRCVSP
Description: competition ELISA: no inhibition of MAb 2G9 binding to immobilized BSA-E-416-433. On the technique in general: In an ELISA, binding on a coated surface is turned into a signal by an enzyme label.

B1: IgM clone 2G9 (antibody, V domains shown)
VH: QVQLKQSGPGLVQPSQSLSITCTVSGFSLTSYGVHWVRQSPGKGLEWLGVIWSGGSTDYNAAFISRLSISKDNSKSQVFFKMNSLQANDTAIYYCARNKDYGSSYDYYAMDYWGQGTSVTVSS
VL: DIQMTQTTSSLSASLGDRVTISCRASQDISNYLNWYQQKPDGTVKLLIYYTSRLHSGVPSRFSGSGSGTDYSLTISNLEQEDIATYFCQQGNTLPTFGGGTKLEIKR
notes: also called MAb 2G9; MAb IgM 2G9
Take B1: the binding result is “no binding”.
